What was measured:
[1] = target: human IL-2Rβ (CD122), full-length, on cells (human) (UniProt P14784); experiment: flow cytometry competition: antibody titrated against recombinant IL-2 (5 nM) binding to HEK293 cells expressing human IL-2Rβ and IL-2Rγ
[2] = target: human IL-2Rβ (CD122), full-length, on cells (human) (UniProt P14784); experiment: flow cytometry competition: antibody titrated against recombinant IL-15 (2 nM) binding to HEK293 cells expressing human IL-2Rβ and IL-2Rγ

human IL-2Rβ (CD122), full-length, on cells (human), sequence (P14784 27-551): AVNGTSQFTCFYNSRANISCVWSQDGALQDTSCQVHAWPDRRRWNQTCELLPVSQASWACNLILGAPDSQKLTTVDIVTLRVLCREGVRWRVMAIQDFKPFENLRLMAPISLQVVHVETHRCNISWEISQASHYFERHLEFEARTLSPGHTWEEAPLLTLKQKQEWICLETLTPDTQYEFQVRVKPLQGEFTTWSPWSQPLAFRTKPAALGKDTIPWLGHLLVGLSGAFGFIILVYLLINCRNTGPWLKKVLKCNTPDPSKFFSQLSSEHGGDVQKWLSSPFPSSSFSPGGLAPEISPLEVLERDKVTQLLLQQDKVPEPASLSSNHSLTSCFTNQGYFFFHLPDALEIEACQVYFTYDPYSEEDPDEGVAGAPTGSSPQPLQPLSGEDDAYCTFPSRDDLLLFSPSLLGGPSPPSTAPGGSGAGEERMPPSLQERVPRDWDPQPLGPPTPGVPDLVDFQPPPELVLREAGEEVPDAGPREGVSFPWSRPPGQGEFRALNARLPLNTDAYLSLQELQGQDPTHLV

B1: APE14773.01 (anti-CD122 control ref ABC2) (antibody, from another filing, V domains shown)
VH: EVKLVESGGGLVQPGGSLRLSCATSGFTFSDFYMEWVRQPPGKRLEWIAASRNKANDYTTEYSASVKGRFIVSRDTSQSILYLQMNALRAEDTAIYYCARSYYRYDGMDYWGQGTSVTVSS
VL: QVVLTQSPVIMSASPGEKVTMTCSAISSVSYMYWYQQKPGSSPRLLIYDTSNLVSGVPVRFSGSGSGTSYSLTISRMEAEDAATYYCQQWNTYPYTFGGGTKLEIK
**Q.** For B1, which IC50 (read off the curve) [1] is on record?
**A.** 1 nM

**Q.** What about the IC50 (read off the curve) [2] of the same binder?
**A.** 0.9 nM

Source: US20260265385A1, “CD122 BINDING AGENTS AND METHOD OF USING SAME” (AnaptysBio, Inc., priority 2022, published 2026)
